Biological target: EGFR on A431 cells (human) (UniProt P00533)
Experiment: cell-based or functional assay

“anti-EGFR antibody (clone 225: the original antibody of cetuximab, Calbiochem)” was tested, and the inhibition of EGFR phosphorylation in A431 cells was 40%.
